Key:
[1] = molecular target: ribulose-1,5-bisphosphate carboxylase/oxygenase (RuBisCO) large subunit of Serratia sp. ISTD04 (Serratia sp. ISTD04 (endogenous)); assay: SEC; native RuBisCO purified from Serratia sp. ISTD04, Superdex 200 FPLC gel filtration in buffer A (200 mM Tris-Cl, 10 mM MgCl2, 132 mM KHCO3, 10 mM DTT, ATP, pH 7.8), 0.5 ml/min, 4°C; subunits of the eluted enzyme shown by SDS-PAGE (12%)
[2] = molecular target: ribulose-1,5-bisphosphate carboxylase/oxygenase (RuBisCO) small subunit of Serratia sp. ISTD04 (Serratia sp. ISTD04 (endogenous)); assay: as above

stoichiometry N [1] | stoichiometry N [2] | Substance
8 |  | ribulose-1,5-bisphosphate carboxylase/oxygenase (RuBisCO) large subunit of Serratia sp. ISTD04 (natural protein)
 | 8 | ribulose-1,5-bisphosphate carboxylase/oxygenase (RuBisCO) small subunit of Serratia sp. ISTD04 (natural protein)
